This is an account of results in patent US10435681B2, “Compounds and methods for stabilizing thrombin activity” (Omrix Biopharmaceuticals Ltd., priority 2013, dated 2019).

For one assay, the target named is T1, gamma loop of thrombin (Homo sapiens, UniProt P00734).
T1 construct: Fluorescein-labeled cyclic gamma-loop derived peptide; made in house; host or cells: chemical synthesis
As to the kind of experiment: Peptide microarray binding screen with fluorescent gamma loop peptide. As to conditions: scale 0-65535. On the procedure:
Based on the results disclosed in Example 2, the gamma loop peptide was used as a bait to find additional peptides which may positively affect the stability of thrombin. For this purpose, a binding screen was carried out using a fluorescent gamma loop peptide incubated with several peptide arrays.
(§1) A library of 1,676 15-meric peptides spanning the sequences of proteins interacting with the gamma loop of thrombin such as thrombin itself, anti-thrombin III (ATIII), thrombomodulin, heparin cofactor II, bovine pancreatic trypsin inhibitor (BPTI), and hirudin, and modifications of the thrombin gamma loop sequence were generated. Peptides were synthesized using SPOT synthesis (Wenschuh H, et al. (2000). Coherent membrane supports for parallel microsynthesis and screening of bioactive peptides. Biopolymers 55:188-206) and were chemoselectively immobilized onto functionalized glass slides as described (Panse S, et al. (2004) Profiling of generic anti-phosphopeptide antibodies and kinases with peptide microarrays using radioactive and fluorescence-based assays. Mol Divers 8:291-299.2.). Each peptide was printed in triplicates onto the microarray. For binding studies, 100 μg of purified thrombin (Omrix biopharmaceuticals) were directly labeled with DYLIGHT® 650 Microscale Antibody Labeling Kits, THERMO SCIENTIFIC™ (#84536) and diluted in blocking buffer SUPERBLOKTM T20 (TBS) Blocking Buffer, THERMO SCIENTIFICTM (#37536). The microarrays were incubated with 10 μg/ml DYLIGHT® 650-Thrombin or a Fluorescein-labeled cyclic gamma-loop derived peptide for one hour at 30° C. in a HS4800™ microarray processing station (Tecan) (Masch A, et al., (2010) Antibody signatures defined by high-content peptide microarray analysis. Methods Mol Biol 669:161-172).
(§2) Microarrays were washed with 0.1% TWEEN®20 in 1× TBS followed by 0.05% TWEEN®20 in 0.1× SSC and dried in a stream of nitrogen. Each microarray was scanned using GENEPIX® Autoloader 4200AL (Molecular Devices, Pixel size: 10 μm). Signal intensities were evaluated using spot recognition software GENEPIX® Pro 7.0 analysis software (Molecular Devices). For each peptide, the mean signal intensity of the three triplicates was extracted. Further evaluation and representation of results was performed using the statistical computing and graphics software R (Version 2.11.1, www.r-project.org).
(§3) One array included peptides based on the thrombin sequence. Any peptide isolated from this library may reflect possible regions in the thrombin protein that may interact with the gamma loop. […] The fluorescence for the strongest binding candidates (hits) was quantified on an arbitrary scale of 0-65535 (2^16). Thrombin activity was assesed as described in Example 1.

The target of assay [1] is T2, thrombin (Homo sapiens, UniProt P00734).
T2 construct: yields the active alpha thrombin molecule which is a 295 amino acid polypeptide (human) composed of a heavy and light chain
As to the kind of experiment: Peptide microarray binding with fluorescently labelled thrombin. The note with it: for Binding intensity of thrombin (100 μg/ml): DYLIGHT 650-Thrombin; for binding to thrombin (in words): fluorescent thrombin. As to the method: A screen was carried out to identify gamma loop mutants that may show improved binding to thrombin. This was carried out with fluorescent thrombin on an array of gamma loop peptide mutants. Three such cyclized peptides with the highest binding efficiency were tested for their capacity to stabilize thrombin without compromising thrombin activity towards fibrinogen (see Example 4 below).
as §1, with “The microarrays were incubated with 10 μg/ml DYLIGHT® 650-Thrombin or a Fluorescein-labeled” left out
as §2, §3

In assay [2] the target is T2, thrombin. As to the kind of experiment: Thrombin stability testing: remaining clotting activity of 1000 IU/ml liquid thrombin after storage at 37° C. The assay is classed as biochemical. As to conditions: for stabilization of thrombin activity (in words): 0.5 mM peptide, 1000 IU/ml thrombin, 37° C., 0, 3 and 7 days; for maintaining thrombin activity compared with 0.5 mM gamma loop peptide (in words): 3% (w/v) arginine. On the procedure:
Aqueous liquid thrombin, in its purified and concentrated form 1000 international units IU/ml may undergo autolysis at room temperature causing a significant loss of activity e.g. towards a heterologous substrate. E.g. thrombin activity towards a heterologous substrate is reduced when a liquid thrombin formulation is incubated at room temperature for prolonged periods of time (e.g. 72 to 144 hours), inter alia, due to autolytic degradation. The decrease of thrombin activity towards a heterologous substrate in aqueous liquid solution can be assessed by measuring thrombin activity after prolonged periods of time and under permissive temperature (e.g. 37° C.). In the following experiments, the effect of a peptide on the stability of thrombin was studied under different conditions.
Aqueous liquid purified and concentrated thrombin (1000 IU/ml; equivalent to about 10 μM) was aliquoted and placed in a 37° C. incubator for 3 days (72 hours), 7 days (168 hours) and 14 days (336 hours). Prior to incubation, thrombin samples were spiked with indicated amounts of different tested peptides or with a control thrombin inhibitor: benzamidine or arginine *HCl (“arginine”). Specific peptides, their concentrations, and thrombin inhibitors used are indicated in each Example. Following the incubation period, the samples were frozen at −80° C. until testing the thrombin activity. Just before thrombin activity assay testing, all the samples were thawed and 100-fold diluted into a dilution buffer (0.4% tri-sodium citrate di-hydrate, 0.9% sodium chloride and 1% BSA, pH=7.5) to bring the thrombin concentration in the sample to that within the specifications of the assay (4-10 IU/ml) and to dilute the tested peptides in the sample to a negligible concentration.
(§4) Thrombin activity was assessed by clotting time measurements using STart4 Coagulation Instrument (DIAGNOSTICA STAGO™, Asnieres sur Seine, France). The assay is a modification of the European Pharmacopoeia Assay procedure, 1997, 0903, p. 858. Briefly, a calibration curve was prepared by mixing thrombin standard with a fibrinogen solution of 0.1% fibrinogen content (Enzyme Research Laboratories, Ind., USA). Thrombin concentration in the different tested samples was then calculated from the calibration curve by their clotting time (the concentration was extrapolated from the calibration curve).
For stability testing of 1000IU/ml thrombin following storage with or without peptides, testing was carried out as described above. Dilutions (1:100) were carried out before measuring the activity.
All of these peptides (“mutant gamma loop peptides” identified in Example 3, random peptides, thrombin derived peptides, and “gamma loop binding peptides” mentioned above) were tested for their ability to stabilize thrombin activity at a concentration of 0.5 mM as described in Example 2.

Assay [3] deals with T2, thrombin. As to the kind of experiment: Thrombin inhibition testing: clotting activity of 10 IU/ml thrombin towards fibrinogen in the presence of the additive. The assay is classed as biochemical. The note with it: for inhibition of thrombin activity: 0.5 mM additive; for inhibition of thrombin activity / reduction/inhibition of thrombin activity: 10 IU/ml thrombin. As to the method:
as §4
For inhibition testing, the clotting activity of 10 IU/ml thrombin was measured in the presence or absence of peptides.
The assay was carried out as described in Example 1.

“Also recorded” adds a separate entry of the source. Where a name gives a salt, the structure may show the parent alone. Bridges are numbered along the chain shown (N, C = ends). Where no end group is shown, it is not given here. Some results are limits rather than exact numbers.

Take “SGIESQLWRSRYPHK [Thr_032_CS, thrombin derived peptide, Cysteine replaced by Serine]”: in the assay with gamma loop of thrombin, the “Binding intensity of gamma loop” value worked out at 35117 arbitrary units. Moreover, the “Binding intensity of thrombin (100 μg/ml)” value in the assay with thrombin [1] is 15079. For the same compound, the “stabilization of thrombin activity (in words)” value (“stabilization” for short) is recorded as “some stabilization effect” with thrombin [2] and “capable of stabilizing liquid aqueous thrombin” with thrombin [2] (listed as SEQ ID NO:10).

Take “RIRITDNMFSAGYKP [Thr_136_CS, thrombin derived peptide, Cysteine replaced by Serine]”: in the assay with gamma loop of thrombin, the “Binding intensity of gamma loop” value was found to be 25278 arbitrary units. In addition, in the assay with thrombin [1], the “Binding intensity of thrombin (100 μg/ml)” value worked out at 5535 and the “binding to thrombin (in words)” value is listed as “weakest fluorescent signal”. For the same compound, in the assay with thrombin [2], the “stabilization” value is given as “least effective; also recorded: weaker stabilization effect”. For the same compound, the “stabilization” value with thrombin [2] (listed as SEQ ID NO:11) is reported as “capable of stabilizing liquid aqueous thrombin”.

As for “CKETWTANVGKC (disulfide 1-12 (inferred)) [SEQ ID NO:3, gamma loop peptide cyclized with terminal cysteine residues]”, the “stabilization” value with thrombin [2] is listed as “efficient stabilization of thrombin activity; also recorded: capable of stabilizing liquid aqueous thrombin”.

Turning to `N=C(N)c1ccccc1` [Benzamidine], the “inhibition of thrombin activity” value at thrombin [3] was determined as 20%.

“ISMLEKIYIHPRYNW [Thr_111, thrombin derived peptide]”: the “Binding intensity of gamma loop” value with gamma loop of thrombin is reported as 32804 arbitrary units. In the assay with thrombin [1], the “Binding intensity of thrombin (100 μg/ml)” value came to 60199 and the “binding to thrombin (in words)” value is given as “strongest interaction with thrombin”. Further, the “stabilization” value with thrombin [2] is on record as “increased thrombin degradation; also recorded: destabilization effect”.

With “CKETWTANVLKC (disulfide 1-12 (inferred)) [SEQ ID NO:6, cyclized mutant gamma loop peptide]”, the “stabilization” value with thrombin [2] is reported as “inefficient”.

“NITRSGIESQLWRSR [Thr_031_CS, thrombin derived peptide, Cysteine replaced by Serine]”: the “Binding intensity of gamma loop” value with gamma loop of thrombin was determined as 40787 arbitrary units. Besides, the “Binding intensity of thrombin (100 μg/ml)” value with thrombin [1] is given as 18537. For the same compound, the “stabilization” value in the assay with thrombin [2] is “some stabilization effect”; in the assay with thrombin [2] (listed as SEQ ID NO:9), “capable of stabilizing liquid aqueous thrombin”.

Consider “CKETWTAYVGKC (disulfide 1-12 (inferred)) [SEQ ID NO:5, cyclized mutant gamma loop peptide]”, for which the “stabilization” value in the assay with thrombin [2] is given as “inefficient”.

As for `N=C(N)NCCC[C@H](N)C(=O)O` [arginine, arginine*HCl], the “thrombin activity following storage (in words)” value on thrombin [2] (0.5-5% (w/v) arginine, concentrated thrombin, up to 48 hours at 37° C.) was “maintained thrombin activity following storage”. The “maintaining thrombin activity compared with 0.5 mM gamma loop peptide (in words)” value was “not more effective” on thrombin [2] (72 hours at 37° C.) and “only marginally so” on thrombin [2] (144 hours at 37° C.). In addition, the “reduction/inhibition of thrombin activity” value at thrombin [3] (0.5% (w/v) arginine) is on record as “about 50%”; on thrombin [3] (0.5% (w/v) arginine, listed as Arginine), 50%; on thrombin [3] (2% (w/v) arginine), above 95%. At thrombin [3] (3% (w/v) arginine, extrapolated from FIG. 2A), the “inhibition of thrombin (in words)” value is recorded as “inhibit thrombin almost entirely”.

As to SHNQRFVTYLGSKLG [Rnd_inter_155], the “Binding intensity of gamma loop” value in the assay with gamma loop of thrombin was 19539 arbitrary units. In the assay with thrombin [1], the “Binding intensity of thrombin (100 μg/ml)” value worked out at 23646. For the same compound, the “stabilization” value with thrombin [2] (listed as SEQ ID NO:13) is “some stabilization effect; also recorded: capable of stabilizing liquid aqueous thrombin”.

In the case of “CKNTWTANVGKC (disulfide 1-12 (inferred)) [SEQ ID NO:4, cyclized mutant gamma loop peptide]”, in the assay with thrombin [2], the “stabilization” value is “inefficient”.

As to “WCYVAGKPGDFGYCD [Thr_069, thrombin derived peptide]”, the “Binding intensity of gamma loop” value in the assay with gamma loop of thrombin was found to be 50553 arbitrary units. In the assay with thrombin [1], the “Binding intensity of thrombin (100 μg/ml)” value is 3141. Also, the “binding to thrombin (in words)” value with thrombin [1] is reported as “very weak binding to thrombin”. For the same compound, the results for the “stabilization” value with thrombin [2] and with thrombin [2] (listed as SEQ ID NO:7) were “minimal effect on thrombin stability; also recorded: weaker stabilization effect” and “capable of stabilizing liquid aqueous thrombin”, respectively.

For KETWTANVGK [SEQ ID NO:1], the “inhibition of thrombin activity” value in the assay with thrombin [3] is recorded as “about 20%”.
